From the supplement of paper PMC5998384

Key:
HeLa Kyoto [1] = experiment: solubility in G1/S (NP-40 vs SDS abundance) (log2 ratio); higher = more soluble; conditions: cell cycle stage: G1/S
HeLa Kyoto [2] = experiment: melting temperature (median over replicates), in situ; higher = more thermally stable
HeLa Kyoto [3] = experiment: solubility change mitosis vs G1/S (difference of NP-40 vs SDS log2 ratios) (log2 ratio difference); higher = more soluble in mitosis
HeLa Kyoto [4] = experiment: thermal stability score vs G1/S (z-score of summed log2 fold changes over temperatures); higher = more thermally stable than in G1/S
[5] = cell cycle stage: early G1 (4.5 h after nocodazole release)
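Throughout, for melting temperature (median over replicates), in situ: HeLa Kyoto cells synchronized by double thymidine or nocodazole block, proteins quantified by TMT10plex mass spectrometry, three independent biological replicates.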
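Throughout, for solubility change mitosis vs G1/S (difference of NP-40 vs SDS log2 ratios): synchronized HeLa Kyoto cells (double thymidine block for G1/S, nocodazole release for mitosis), protein amounts in NP-40 versus SDS lysates quantified by mass spectrometry, three biological replicates.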
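Throughout, for solubility in G1/S (NP-40 vs SDS abundance): HeLa Kyoto cells arrested at G1/S by double thymidine block, proteins quantified by TMT10plex mass spectrometry in mild NP-40 versus SDS extracts, three biological replicates.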
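Throughout, for thermal stability score vs G1/S (z-score of summed log2 fold changes over temperatures): synchronized HeLa Kyoto cells, proteins quantified by TMT10plex mass spectrometry, three biological replicates, mitosis taken 0.5 h after nocodazole release, G1/S directly after double thymidine block.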

| Sequence | solubility in G1/S (log2) (HeLa Kyoto [1]) | melting temperature (HeLa Kyoto [2]; cell cycle stage: G1/S) [°C] | melting temperature (HeLa Kyoto [2]; cell cycle stage: mitosis) [°C] | solubility change mitosis (log2) (HeLa Kyoto [3]) | thermal stability score (HeLa Kyoto [4]; [5]) | thermal stability score (HeLa Kyoto [4]; cell cycle stage: mitosis) |
| --- | --- | --- | --- | --- | --- | --- |
| MSFDPNLLHNNGHNGYPNGTSAALRETGVIEKLLTSYGFIQCSERQARLFFHCSQYNGNLQDLKVGDDVEFEVSSDRRTGKPIAVKLVKIKQEILPEERMNGQVVCAVPHNLESKSPAAPGQSPTGSVCYERNGEVFYLTYTPEDVEGNVQLETGDKINFVIDNNKHTGAVSARNIMLLKKKQARCQGVVCAMKEAFGFIERGDVVKEIFFHYSEFKGDLETLQPGDDVEFTIKDRNGKEVATDVRLLPQGTVIFEDISIEHFEGTVTKVIPKVPSKNQNDPLPGRIKVDFVIPKELPFGDKDTKSKVTLLEGDHVRFNISTDRRDKLERATNIEVLSNTFQFTNEAREMGVIAAMRDGFGFIKCVDRDVRMFFHFSEILDGNQLHIADEVEFTVVPDMLSAQRNHAIRIKKLPKGTVSFHSHSDHRFLGTVEKEATFSNPKTTSPNKGKEKEAEDGIIAYDDCGVKLTIAFQAKDVEGSTSPQIGDKVEFSISDKQRPGQQVATCVRLLGRNSNSKRLLGYVATLKDNFGFIETANHDKEIFFHYSEFSGDVDSLELGDMVEYSLSKGKGNKVSAEKVNKTHSVNGITEEADPTIYSGKVIRPLRSVDPTQTEYQGMIEIVEEGDMKGEVYPFGIVGMANKGDCLQKGESVKFQLCVLGQNAQTMAYNITPLRRATVECVKDQFGFINYEVGDSKKLFFHVKEVQDGIELQAGDEVEFSVILNQRTGKCSACNVWRVCEGPKAVAAPRPDRLVNRLKNITLDDASAPRLMVLRQPRGPDNSMGFGAERKIRQAGVID [CSDE1] | -0.15 | 47.6 | 48.4 | -0.111 | 1.75 | 4.08 |
| MSFLKSFPPPGPAEGLLRQQPDTEAVLNGKGLGTGTLYIAESRLSWLDGSGLGFSLEYPTISLHALSRDRSDCLGEHLYVMVNAKFEEESKEPVADEEEEDSDDDVEPITEFRFVPSDKSALEAMFTAMCECQALHPDPEDEDSDDYDGEEYDVEAHEQGQGDIPTFYTYEEGLSHLTAEGQATLERLEGMLSQSVSSQYNMAGVRTEDSIRDYEDGMEVDTTPTVAGQFEDADVDH [CLNS1A] | -0.106 | 51.7 | 52.6 | 0.0376 | -0.798 | -0.57 |
| MSFRKVNIIILVLAVALFLLVLHHNFLSLSSLLRNEVTDSGIVGPQPIDFVPNALRHAVDGRQEEIPVVIAASEDRLGGAIAAINSIQHNTRSNVIFYIVTLNNTADHLRSWLNSDSLKSIRYKIVNFDPKLLEGKVKEDPDQGESMKPLTFARFYLPILVPSAKKAIYMDDDVIVQGDILALYNTALKPGHAAAFSEDCDSASTKVVIRGAGNQYNYIGYLDYKKERIRKLSMKASTCSFNPGVFVANLTEWKRQNITNQLEKWMKLNVEEGLYSRTLAGSITTPPLLIVFYQQHSTIDPMWNVRHLGSSAGKRYSPQFVKAAKLLHWNGHLKPWGRTASYTDVWEKWYIPDPTGKFNLIRRYTEISNIK [GLT8D1] | 0.144 | 53 | 53 | 0.024 | 3.31 | 5.82 |
| MSFRKVVRQSKFRHVFGQPVKNDQCYEDIRVSRVTWDSTFCAVNPKFLAVIVEASGGGAFLVLPLSKTGRIDKAYPTVCGHTGPVLDIDWCPHNDEVIASGSEDCTVMVWQIPENGLTSPLTEPVVVLEGHTKRVGIIAWHPTARNVLLSAGCDNVVLIWNVGTAEELYRLDSLHPDLIYNVSWNHNGSLFCSACKDKSVRIIDPRRGTLVAEREKAHEGARPMRAIFLADGKVFTTGFSRMSERQLALWDPENLEEPMALQELDSSNGALLPFYDPDTSVVYVCGKGDSSIRYFEITEEPPYIHFLNTFTSKEPQRGMGSMPKRGLEVSKCEIARFYKLHERKCEPIVMTVPRKSDLFQDDLYPDTAGPEAALEAEEWVSGRDADPILISLREAYVPSKQRDLKISRRNVLSDSRPAMAPGSSHLGAPASTTTAADATPSGSLARAGEAGKLEEVMQELRALRALVKEQGDRICRLEEQLGRMENGDA [CORO1B] | -0.0585 | 51.1 | 50.6 | -0.0904 | -0.395 | -0.683 |
| MSFVAYEELIKEGDTAILSLGHGAMVAVRVQRGAQTQTRHGVLRHSVDLIGRPFGSKVTCGRGGWVYVLHPTPELWTLNLPHRTQILYSTDIALITMMLELRPGSVVCESGTGSGSVSHAIIRTIAPTGHLHTVEFHQQRAEKAREEFQEHRVGRWVTVRTQDVCRSGFGVSHVADAVFLDIPSPWEAVGHAWDALKVEGGRFCSFSPCIEQVQRTCQALAARGFSELSTLEVLPQVYNVRTVSLPPPDLGTGTDGPAGSDTSPFRSGTPMKEAVGHTGYLTFATKTPG [TRMT61A] | -0.0252 | 55.4 | 57.5 | -0.00636 | 0.944 | -0.546 |
| MSGAEEAGGGGPAAGPAGSVPAGVGVGVGAGPGAAAGQAAAAALGEAAGPGLPDEAGLAGARQLQLQEAAGDPDAPPKKRLRAAEAAEAAAAAAAAGSGKLEERLYSVLCCTVCLDLPKASVYQCTNGHLMCAGCFIHLLADARLKEEQATCPNCRCEISKSLCCRNLAVEKAVSELPSECGFCLRQFPRSLLERHQKEECQDRVTQCKYKRIGCPWHGPFHELTVHEAACAHPTKTGSELMEILDGMDQSHRKEMQLYNSIFSLLSFEKIGYTEVQFRPYRTDDFITRLYYETPRFTVLNQTWVLKARVNDSERNPNLSCKRTLSFQLLLKSKVTAPLECSFLLLKGPYDDVRISPVIYHFVFTNESNETDYVPLPIIDSVECNKLLAAKNINLRLFLFQIQK [CYHR1] | 0.166 | 54 | 55 | -0.0838 | -1.75 | -2.18 |
| MSGASSSEQNNNSYETKTPNLRMSEKKCSWASYMTNSPTLIVMIGLPARGKTYVSKKLTRYLNWIGVPTKVFNLGVYRREAVKSYKSYDFFRHDNEEAMKIRKQCALVALEDVKAYLTEENGQIAVFDATNTTRERRDMILNFAEQNSFKVFFVESVCDDPDVIAANILEVKVSSPDYPERNRENVMEDFLKRIECYKVTYRPLDPDNYDKDLSFIKVINVGQRFLVNRVQDYIQSKIVYYLMNIHVQPRTIYLCRHGESEFNLLGKIGGDSGLSVRGKQFAQALRKFLEEQEITDLKVWTSQLKRTIQTAESLGVPYEQWKILNEIDAGVCEEMTYAEIEKRYPEEFALRDQEKYLYRYPGGESYQDLVQRLEPVIMELERQGNVLVISHQAVMRCLLAYFLDKGADELPYLRCPLHTIFKLTPVAYGCKVETIKLNVEAVNTHRDKPTNNFPKNQTPVRMRRNSFTPLSSSNTIRRPRNYSVGSRPLKPLSPLRAQDMQEGAD [PFKFB2] | 0.16 | 53.9 | 53.3 | -0.071 | 0.139 | 0.693 |
| MSGEDEQQEQTIAEDLVVTKYKMGGDIANRVLRSLVEASSSGVSVLSLCEKGDAMIMEETGKIFKKEKEMKKGIAFPTSISVNNCVCHFSPLKSDQDYILKEGDLVKIDLGVHVDGFIANVAHTFVVDVAQGTQVTGRKADVIKAAHLCAEAALRLVKPGNQNTQVTEAWNKVAHSFNCTPIEGMLSHQLKQHVIDGEKTIIQNPTDQQKKDHEKAEFEVHEVYAVDVLVSSGEGKAKDAGQRTTIYKRDPSKQYGLKMKTSRAFFSEVERRFDAMPFTLRAFEDEKKARMGVVECAKHELLQPFNVLYEKEGEFVAQFKFTVLLMPNGPMRITSGPFEPDLYKSEMEVQDAELKALLQSSASRKTQKKKKKKASKTAENATSGETLEENEAGD [PA2G4] | -0.0146 | 51.5 | 52.1 | -0.108 | -0.392 | 2 |
